{"source": "patent US8227408B2", "about": "“Leptin as an anti-amyloidogenic biologic and methods for delaying the onset and reducing Alzheimer's disease-like pathology” (Neurotez, Inc., priority 2005, dated 2012)", "molecules": {"B1": {"name": "Leptin: peptide hormone controlling adaptive metabolic mechanisms to energy availability; leptin (Harbor-UCLA) in vitro, recombinant murine leptin in mice (protein, UniProt P41160 22-167, looked up)", "Leptin": "VPIQKVQDDTKTLIKTIVTRINDISHTQSVSAKQRVTGLDFIPGLHPILSLSKMDQTLAVYQQVLTSLPSQNVLQIANDLENLRDLLHLLAFSKSCSLPQTSGLQKPESLDGVLEASLYSTEVVALSRLQGSLQDILQQLDVSPEC"}}, "key": {"[1]": {"system": "Neuro2a cells stably transfected with hyg-sa134 (SEAP-APP)", "test": "Aβ production by Neuro2a cells stably transfected with hyg-sa134 (total Aβ in media, sandwich ELISA)", "format": "cell-based, mouse", "details": "5 h; about 400 ng/ml leptin alone or 10 μM water-soluble cholesterol alone; FIG. 4b"}, "Tg2576 mice": {"system": "Tg2576 mice", "test": "Chronic s.c. leptin infusion in Tg2576 mice under high or low fat diet", "format": "in vivo, mouse", "experimental": "Blood was withdrawn (approximately 1 ml) from deeply anaesthetized animals by cardiocentesis and mixed with 25 μl of 164 μM EDTA anticoagulant. Plasma was prepared immediately and frozen at −70° C. Plasma leptin concentrations were determined by a radioimmunoassay (RIA) (Chung et al., Am. J Physiol. 274:R985-R990 (1998)), using a kit from LINCO Research, Inc. (Missouri).\nAPPswe (SEQ ID NO: 13) expressing mice (Tg2576) or wild-type littermates were maintained in pathogen-free environment at 25° C. on a 12-12 h light-dark cycle. Mice were euthanized between the ages of 31 and 40 weeks. They were provided ad libidum access for up to 9 weeks (i.e., 1 week prior to leptin treatments and 8 weeks during such treatments) to a high fat diet (D12451) containing about 45% of the total calories from fat (Research Diets, NJ) or to a low fat diet (D12450B) containing about 10% of the total calories from fat. Equal number of male and female Tg2576 mice under each diet were administered leptin or a placebo (PBS) from the age of 32 wks to up to 40 wks of age. For this, mice were anaesthetized with intraperitoneal injection of ketamine (55 mg/ml) and xylazine (7-10 mg/ml) and surgically fitted with an Alzet miniosmotic pump (model 2004, Durect Co, CA) placed subcutaneously. Local subcutaneous injection of 0.5 ml of 0.5% lidocaine insured postoperative relief. Half of the mice received daily about 20 μg leptin in PBS (0.25 μl/h of 3.33 mg/ml recombinant murine leptin) and the other half were infused with PBS. Four from each group (two males and two females) were euthanized after 4 weeks treatment. Osmotic pumps were replaced in the rest and the mice then treated for a total period of 8 weeks. Wild-type littermates were also treated with leptin under high or low diet regimens. […]\nIn panel (a), plasma leptin was quantified in one year old mice with the following genotypes: i) double mutant APPSwe/PS1M146V ii) single mutant PS1M146V and iii) wild-type (a cross between C57BL/6Ntac and B6SJLF2). […] Plasma Aβ was also measured in these mice prior to treatment. […] In panel (c), plasma leptin was determined by radioimmunoassay (“RIA”) (LINCO Research, Inc.) in 8 month old Tg2576 and WT littermate mice and then again following treatments as described in FIG. 4b. Leptin also was measured in WT but not Tg2576 mice prior to treatment. In panel (d), plasma insulin was determined by RIA (LINCO Research, Inc.) in 8 month old WT and Tg2576 mice and then again following a 2 month LFD or HFD with (+) or without (−) leptin infusion. In panel (e), plasma total Aβ (Aβ40 (SEQ ID NO: 4) plus Aβ42/43 (SEQ ID NO: 5/SEQ ID NO: 6) was measured in 8 month Tg2576 mice and then again following a 2 month LFD or HFD with (+) or without (−) leptin infusion. […]"}}}
{"molecule": "B1", "values": [{"measurement": "levels of Aβ detected in the media (percentage of corresponding controls)", "setting": "[1]", "value": "56±5", "unit": "%"}, {"measurement": "levels of circulating Aβ (total Aβ in the plasma)", "setting": "Tg2576 mice; Tg2576, both diets, 2 month leptin infusion", "value": "lower the levels of circulating Aβ under both diets"}, {"measurement": "APP expression in adipocytes", "setting": "Tg2576 mice; adipose tissue of mice under high or low fat diets, data not shown", "value": "no apparent influence"}, {"measurement": "fasting insulin levels (plasma, RIA)", "setting": "Tg2576 mice; all groups (WT and Tg2576, LFD and HFD), 2 month leptin infusion", "value": "decreased fasting insulin levels in all groups"}, {"measurement": "brain Aβ load", "setting": "Tg2576 mice; chronic administration, s.c. Alzet pump about 20 μg leptin daily, up to 8 weeks", "value": "reduced the brain Aβ load"}]}
